Test results reported in patent US20130136748A1 (Ablynx, published 2013).

T1: cHER3ECD (Maccaca fascicularis HER3 extracellular domain) (Macaca fascicularis, UniProt P21860 20-643 (human entry))
T1 construct: also called cyno HER3ECD; cyno HER3-ECD
T1 chain: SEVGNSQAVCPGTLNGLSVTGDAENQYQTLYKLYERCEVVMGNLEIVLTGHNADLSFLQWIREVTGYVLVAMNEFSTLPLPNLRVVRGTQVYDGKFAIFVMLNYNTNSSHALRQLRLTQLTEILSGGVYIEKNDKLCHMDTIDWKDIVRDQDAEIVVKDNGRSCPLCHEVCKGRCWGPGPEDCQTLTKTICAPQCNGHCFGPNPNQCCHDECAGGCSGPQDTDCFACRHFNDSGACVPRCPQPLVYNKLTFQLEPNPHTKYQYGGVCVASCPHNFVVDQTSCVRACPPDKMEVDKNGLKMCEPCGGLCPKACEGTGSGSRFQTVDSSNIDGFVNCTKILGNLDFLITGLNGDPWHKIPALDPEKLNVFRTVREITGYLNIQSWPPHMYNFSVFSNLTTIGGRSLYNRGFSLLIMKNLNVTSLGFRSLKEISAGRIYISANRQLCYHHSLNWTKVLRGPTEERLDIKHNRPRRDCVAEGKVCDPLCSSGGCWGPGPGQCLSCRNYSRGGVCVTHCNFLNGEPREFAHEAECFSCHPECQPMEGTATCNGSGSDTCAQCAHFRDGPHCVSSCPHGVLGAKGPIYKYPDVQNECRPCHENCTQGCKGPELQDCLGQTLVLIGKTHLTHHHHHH


Tests used:
human HER1 [1] = target: T2, human HER1 (human, UniProt P00533 25-1210); assay: FACS, CHO-HER1
T2 construct: also called EGFR; ErbB1

human HER2 [2] = target: T3, human HER2 (human, UniProt P04626 23-1255); assay: FACS, CHO-HER2
T3 construct: also called hHER2

human HER4 [3] = target: T4, human HER4 (human, UniProt Q15303 26-1308); assay: FACS, CHO-HER4
human HER1 [4] = target: T2, human HER1; assay: FACS CHO-HER1, 222 nM
human HER1 [5] = target: T2, human HER1; assay: FACS CHO-HER1, 667 nM
human HER2 [6] = target: T3, human HER2; assay: FACS CHO-HER2, 222 nM
human HER2 [7] = target: T3, human HER2; assay: FACS CHO-HER2, 667 nM
human HER4 [8] = target: T4, human HER4; assay: FACS CHO-HER4, 222 nM
human HER4 [9] = target: T4, human HER4; assay: FACS CHO-HER4, 667 nM
human HER1 [10] = target: T2, human HER1; assay: FACS CHO-HER1, 2000 nM
human HER2 [11] = target: T3, human HER2; assay: FACS CHO-HER2, 2000 nM
human HER4 [12] = target: T4, human HER4; assay: FACS CHO-HER4, 2000 nM
hHER3 full length [13] = target: T5, hHER3 full length (human, UniProt P21860 20-1342); assay: cell-based or functional assay
hHER3 full length [14] = target: T5, hHER3 full length; assay: cell-based or functional assay; remark: listed apart in the source
[15] = target: T6, hHER3 ECD (human HER3 extracellular domain) (human, UniProt P21860 20-643); assay: ELISA, coated hHER3-ECD
T6 construct: also called recombinant HER3-ECD

[16] = target: T1, cHER3ECD (Maccaca fascicularis HER3 …); assay: ELISA, coated cHER3-ECD
hHER3 full length [17] = target: T5, hHER3 full length; assay: FACS, 400 nM, competitor 04C07-biotin
hHER3 full length [18] = target: T5, hHER3 full length; assay: FACS, 400 nM, competitor 04F10-biotin
hHER3 full length [19] = target: T5, hHER3 full length; assay: FACS, 400 nM, competitor 17C08-biotin
hHER3 full length [20] = target: T5, hHER3 full length; assay: FACS, 400 nM, competitor 18E08-biotin
hHER3 full length [21] = target: T5, hHER3 full length; assay: FACS, 400 nM, competitor 21B02-biotin
hHER3 full length [22] = target: T5, hHER3 full length; assay: FACS, 400 nM, competitor 23F05-biotin
[23] = target: T7, human HER3-Fc (R&D Systems, 348-RB) (human, UniProt P21860 20-643); assay: SPR, HER3-Fc captured by anti-Fc
T7 construct: Bought; also called hHER3-Fc; Fc-HER3; Fc part of the bought chimera not given, not described

T4 sequence (Q15303 26-1308 limits assumed): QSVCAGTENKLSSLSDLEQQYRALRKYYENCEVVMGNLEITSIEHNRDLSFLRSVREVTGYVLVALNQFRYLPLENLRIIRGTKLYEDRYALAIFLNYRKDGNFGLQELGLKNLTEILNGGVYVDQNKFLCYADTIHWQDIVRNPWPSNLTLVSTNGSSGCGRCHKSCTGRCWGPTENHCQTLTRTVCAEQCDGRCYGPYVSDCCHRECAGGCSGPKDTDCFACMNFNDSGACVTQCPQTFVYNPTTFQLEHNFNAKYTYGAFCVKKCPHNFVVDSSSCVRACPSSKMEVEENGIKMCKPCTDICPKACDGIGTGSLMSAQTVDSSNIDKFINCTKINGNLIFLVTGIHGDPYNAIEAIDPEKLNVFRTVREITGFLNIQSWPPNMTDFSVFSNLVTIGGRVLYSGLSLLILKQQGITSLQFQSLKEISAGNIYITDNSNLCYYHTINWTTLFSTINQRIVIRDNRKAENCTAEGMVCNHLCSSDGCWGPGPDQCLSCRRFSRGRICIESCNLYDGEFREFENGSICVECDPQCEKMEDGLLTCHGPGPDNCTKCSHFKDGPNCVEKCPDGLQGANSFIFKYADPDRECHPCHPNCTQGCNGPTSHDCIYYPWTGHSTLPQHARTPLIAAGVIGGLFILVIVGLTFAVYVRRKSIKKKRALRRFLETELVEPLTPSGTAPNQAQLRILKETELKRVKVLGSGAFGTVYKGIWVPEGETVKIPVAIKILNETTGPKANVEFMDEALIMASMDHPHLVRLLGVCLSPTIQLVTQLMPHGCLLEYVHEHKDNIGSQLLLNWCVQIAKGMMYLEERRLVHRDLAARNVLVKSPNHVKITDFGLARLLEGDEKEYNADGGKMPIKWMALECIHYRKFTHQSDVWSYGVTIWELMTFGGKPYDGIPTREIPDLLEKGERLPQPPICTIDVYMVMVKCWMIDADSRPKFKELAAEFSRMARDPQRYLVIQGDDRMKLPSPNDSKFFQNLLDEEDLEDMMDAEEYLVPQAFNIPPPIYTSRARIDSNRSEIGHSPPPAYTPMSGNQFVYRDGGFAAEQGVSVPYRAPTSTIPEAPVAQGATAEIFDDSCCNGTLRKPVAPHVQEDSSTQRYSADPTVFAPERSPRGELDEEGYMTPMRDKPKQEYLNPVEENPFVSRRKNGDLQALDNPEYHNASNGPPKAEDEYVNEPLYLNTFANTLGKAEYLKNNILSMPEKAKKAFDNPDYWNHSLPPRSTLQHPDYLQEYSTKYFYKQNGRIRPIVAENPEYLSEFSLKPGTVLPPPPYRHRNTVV

Row | Binder | binding result (human HER1 [1]) | binding result (human HER2 [2]) | binding result (human HER4 [3]) | MCF (human HER1 [4]) | MCF (human HER1 [5]) | MCF (human HER2 [6]) | MCF (human HER2 [7]) | MCF (human HER4 [8]) | MCF (human HER4 [9]) | MCF (human HER1 [10]) | MCF (human HER2 [11]) | MCF (human HER4 [12]) | IC50, HRG1-β1 induced pHER3, MCF-7 (hHER3 full length [13]) [M] | IC50, HRG1-β1 induced pHER3, MDA-MB468 (hHER3 full length [13]) [M] | IC50, HRG1-β1 induced pAkt, MCF-7 (hHER3 full length [14]) [M] | EC50 [15] [nM] | EC50 [16] [nM] | % competition (hHER3 full length [17]) [%] | % competition (hHER3 full length [18]) [%] | % competition (hHER3 full length [19]) [%] | also measured
1 | 17C08 (VHH, also called 17C8) VHH: EVQLVESGGGLMQAGDSLRLSCAASGRAFSSYALGWFRRAPGKERECVAATDRLGDNTYFPDSVKGRFTISRDNAKNTLYLQMNNLKPEDTAVYYCAAGAVRYGVSTSPMNYNYWGQGTQVTVSS | no binding (tested: 2000 nM) | no binding (tested: 2000 nM) | no binding (tested: 2000 nM) | 62 | 47 | 160 | 418 | 210 | 91 | 58 | 1220 | 254 | 8.98e-08 | 5.38e-08 | 7.24e-07 | 0.62 | 0.59 | 3 | 77 | 97 | inhibition of HRG1-β1 induced pERK1/2, MCF-7 (hHER3 full length [14]): < 50 % inhibition; % competition (hHER3 full length [20]): 98%; % competition (hHER3 full length [21]): 16%; % competition (hHER3 full length [22]): 17%
2 | 18G11 (VHH, c-myc, His6-tagged form as expressed; also called HER3MS18G11; HER3MS018G11) VHH: EVQLVESGGGLVQPGGSLRLSCAASGTLFKINAMGWYRQAPGKRRELVALITSSDTTDYAESVEGRFTISRDNTWNAVYLQMNSLKPEDTAVYYCHSDHYSMGVPEKRVIMYGQGTQVTVSS | no binding (tested: 2000 nM) | no binding (tested: 2000 nM) | no binding (tested: 2000 nM) | 101 | 87 | 109 | 117 | 57 | 56 | 97 | 65 | 124 | 1.03e-08 | 7.03e-09 | 1.38e-07 | 0.72 | 0.64 | 0 | 0 | 74 | inhibition of HRG1-β1 induced pERK1/2, MCF-7 (hHER3 full length [14]): < 50 % inhibition; Kd [23]: 10 nM; kon [23]: 26000 M⁻¹ s⁻¹; % competition (hHER3 full length [20]): 97%; % competition (hHER3 full length [21]): 0%; % competition (hHER3 full length [22]): 0%
3 | 04C07 (VHH, also called HER3MS04C07; HER3MS004C07) VHH: EVQLVESGGGLVQAGGSLRLSCAASGFTFSSYPMSWVRQAPGKGPAWVSTVSPGGITTSYADSVKGRFTISRDNAKNTLYLQMNSLKPEDTAVYYCLRDLNNRGQGTQVTVSS | no binding (tested: 2000 nM) | no binding (tested: 2000 nM) | no binding (tested: 2000 nM) | 75 | 92 | 84 | 79 | 96 | 103 | 72 | 154 | 105 | 1.07e-09 | 6.68e-09 | 1.09e-08 | 0.86 | 0.93 | 100 | 0 | 15 | IC50, HRG1-β1 induced pERK1/2, MCF-7 (hHER3 full length [14]): 2.79e-08 M; Kd [23]: 0.22 nM; kon [23]: 1.2e+06 M⁻¹ s⁻¹; % competition (hHER3 full length [20]): 26%; % competition (hHER3 full length [21]): 2%; % competition (hHER3 full length [22]): 0%
